According to article PMC3810412:

T1: delta opioid receptor (Homo sapiens), P41143
T1 chain: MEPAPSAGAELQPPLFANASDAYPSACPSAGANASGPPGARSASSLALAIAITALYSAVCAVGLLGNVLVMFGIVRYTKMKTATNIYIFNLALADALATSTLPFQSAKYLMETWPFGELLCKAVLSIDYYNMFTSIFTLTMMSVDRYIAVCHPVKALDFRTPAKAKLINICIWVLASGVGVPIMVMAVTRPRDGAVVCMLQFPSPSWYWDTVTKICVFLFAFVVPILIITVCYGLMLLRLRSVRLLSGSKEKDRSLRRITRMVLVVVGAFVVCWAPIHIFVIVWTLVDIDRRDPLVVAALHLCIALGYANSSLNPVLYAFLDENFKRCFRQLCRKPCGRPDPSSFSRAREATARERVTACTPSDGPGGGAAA

B1: ligand 7 (peptide)
chain: YAGFMW
B2: ligand 8 (peptide)
chain: YAGFLW
B3: ligand 5 (peptide)
chain: YAGFMPLW
B4: ligand 2 (peptide)
chain: YAGFMALW

Molecular target: T1, delta opioid receptor (Homo sapiens), …
Experiment: radioligand competition
Conditions: modification not given

Binder	Ki [nM]
B1	2.9
B2	0.6
B3	13
B4	25
